This passage reports EC50 results from patent US20200200749A1 (published 2020).

Targets include BDBV sGP (BDBV (Bundibugyo ebolavirus)); MARV GP; BDBV GP (BDBV (Bundibugyo ebolavirus)).
What all share (test): ELISA
On the technique in general: In an ELISA, binding on a coated surface is turned into a signal by an enzyme label.

For assay [1], the target named is T1, EBOV GP (recombinant, full-length extracellular domain) (EBOV (Ebola Zaire), UniProt Q05320 33-650).
T1 chain: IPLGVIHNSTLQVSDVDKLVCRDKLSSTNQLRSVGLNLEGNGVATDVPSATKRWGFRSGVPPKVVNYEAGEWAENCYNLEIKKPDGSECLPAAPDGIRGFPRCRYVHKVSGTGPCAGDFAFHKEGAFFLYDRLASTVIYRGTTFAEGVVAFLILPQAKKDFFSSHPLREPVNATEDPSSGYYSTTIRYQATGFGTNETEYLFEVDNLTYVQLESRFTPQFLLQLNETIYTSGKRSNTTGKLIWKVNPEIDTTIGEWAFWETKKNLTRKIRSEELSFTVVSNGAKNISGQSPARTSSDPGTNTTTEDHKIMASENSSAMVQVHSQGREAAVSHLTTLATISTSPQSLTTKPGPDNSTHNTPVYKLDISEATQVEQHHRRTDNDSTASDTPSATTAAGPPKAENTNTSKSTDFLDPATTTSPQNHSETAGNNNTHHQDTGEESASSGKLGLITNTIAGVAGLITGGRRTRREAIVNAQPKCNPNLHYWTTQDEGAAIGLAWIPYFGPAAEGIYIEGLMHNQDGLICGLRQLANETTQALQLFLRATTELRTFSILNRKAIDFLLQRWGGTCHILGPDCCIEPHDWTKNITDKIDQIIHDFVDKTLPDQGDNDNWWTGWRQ

For a further assay, the target named is T2, SUDV GP (recombinant) (SUDV (Sudan ebolavirus), UniProt Q66814 33-650).
T2 chain: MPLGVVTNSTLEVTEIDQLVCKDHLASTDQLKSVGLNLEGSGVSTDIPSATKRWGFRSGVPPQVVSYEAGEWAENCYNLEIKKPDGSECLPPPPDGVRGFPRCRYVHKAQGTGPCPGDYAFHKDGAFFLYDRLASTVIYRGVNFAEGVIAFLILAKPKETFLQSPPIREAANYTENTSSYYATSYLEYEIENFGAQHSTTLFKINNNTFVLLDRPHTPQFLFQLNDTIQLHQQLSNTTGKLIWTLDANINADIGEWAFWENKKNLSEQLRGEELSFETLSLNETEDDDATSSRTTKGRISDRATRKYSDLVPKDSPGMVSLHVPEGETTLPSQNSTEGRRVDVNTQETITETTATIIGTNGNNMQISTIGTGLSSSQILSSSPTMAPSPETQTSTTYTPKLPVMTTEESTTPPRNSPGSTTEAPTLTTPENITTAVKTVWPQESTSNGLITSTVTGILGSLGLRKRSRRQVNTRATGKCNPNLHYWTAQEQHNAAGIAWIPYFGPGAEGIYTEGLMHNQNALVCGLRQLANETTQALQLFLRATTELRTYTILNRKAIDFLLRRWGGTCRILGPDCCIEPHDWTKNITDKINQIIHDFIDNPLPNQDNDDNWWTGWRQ

B1: BDBV270 (antibody, V domains shown)
VH: QVQLQESGPGLVKPSQTLSLTCTVSGASISRGLYYWSWIRQPAGKGLEWIGRIYTSGSINYNPSLKSRVTISVDTSKNQFSLRLSSVIATDTAVYYCVRDAPWGDFLTGYFGFYGMDVWGQGTLVTVSS
VL: DIVMTQSPSSLSASVGDRVTITCRASQSINTYLNWYQQKPGKAPKFLIYAASSLHSGVPSRFSGSGSGTDFTLTINSLQPDDFATYYCQQSFTTPYTFGQGTKLEIK
On to B1, for which the EC50 (usually the concentration that produces a half-maximal response) came to 0.173 µg/mL in assay [1] and 0.159 µg/mL with SUDV GP (recombinant).

B2: 223 (antibody, V domains shown)
VH: QVQLQQWGAGLLKPSETLSLTCAVYGGSFTTTYWNWIRQPPGKGLEWIGEVNYSGNANYNPSLKGRVAISVDTSKNQFSLRLNSVTAADTAIYYCTSRIRSHIAYSWKGDVWGKGTTVTVSS
VL: EIVMTQSPGTLSLSPGERATLSCRASQSVPRNYIGWFQQKPGQAPRLLIYGASSRAAGFPDRFSGSGSGTDFTLTITRLEPEDFAMYYCHQYDRLPYTFGQGTKLEIK
Turning to B2, the half-maximal effective concentration (EC50) is more than 10 µg/mL with BDBV sGP, more than 10 µg/mL with MARV GP and 0.022 µg/mL with BDBV GP.

B3: BDBV223 (antibody, V domains shown)
VH: QVQLQQWGAGLLKPSETLSLTCAVYGGSFTTTYWNWIRQPPGKGLEWIGEVNYSGNANYNPSLKGRVAISVDTSKNQFSLRLNSVTAADTAIYYCTSRIRSHIAYSWKGDVWGKGTTVTVSS
VL: EIVMTQSPGTLSLSPGERATLSCRASQSVPRNYIGWFQQKPGQAPRLLIYGASSRAAGFPDRFSGSGSGTDFTLTITRLEPEDFAMYYCHQYDRLPYTFGQGTKLEIK
Turning to B3, the half-maximal effective concentration (EC50) in assay [1] turned out to be 0.024 µg/mL; in the assay with SUDV GP (recombinant), 0.106 µg/mL.

B4: BDBV289 (antibody, V domains shown)
VH: QVQLVQSGAEVKKPGSSVKVSCKASGATFGSDTVTWVRQAPGQGLEWMGGIIPFFGEANYAQRFQGRVTITADKSTNTAYMELSSLRSEDTAVYFCARQINEMATFGEIHYYTYMDVWGQGTLVTVSS
VL: GSELTQDPAVSVALGQTVRITCQGDSLRNYYASWYQQKPRQAPVLVFYGKNNRPSGIPDRFSGSSSGNTASLTISGAQAEDEADYYCNSRDSSSNHLVFGGGTKLTVLS
For B4, the concentration giving a half-maximal response (EC50) came to 0.029 µg/mL in assay [1] and 0.103 µg/mL with SUDV GP (recombinant).

B5: BDBV324 (antibody, V domains shown)
VH: QVQLVQSGAEVKKPGASVKVSCKTSGYTFTSFEIHWVRQGSGQGLEWMGRMNPKSGDTVSAQKFQGRVTLTRDTSINAAYMELGSLSSEDTAVYYCARGPHVGEVVPGLMAGTYYFPLDVWGQGTLVTVSS
VL: DIQMTQSPSTLSASIGDRVTITCRASQSISRWLAWYQQKPGKAPKLLIYKVSDLQSGVPSRFSGSGYGTEFTLTIGSLQPDDLATYYCQQYDTYPWTFGQGTKLEIK
Regarding B5, the concentration for a half-maximal effect (EC50) was 0.131 µg/mL in assay [1] and 0.09 µg/mL in the assay with SUDV GP (recombinant).
